From patent publication US20250066499A1 (SUNSHINE GUOJIAN PHARMACEUTICAL SHANGHAI, published 2025)
Residue numbers refer to the chain shown, from its start.

Columns and labels:
CD73-ND-V137A = target: T1, CD73-ND-V137A (human, UniProt P21589 27-317); experiment: ELISA, biotinylated antigen on streptavidin plate
T1 construct: Alanine mutant of CD73-ND
T1 sequence: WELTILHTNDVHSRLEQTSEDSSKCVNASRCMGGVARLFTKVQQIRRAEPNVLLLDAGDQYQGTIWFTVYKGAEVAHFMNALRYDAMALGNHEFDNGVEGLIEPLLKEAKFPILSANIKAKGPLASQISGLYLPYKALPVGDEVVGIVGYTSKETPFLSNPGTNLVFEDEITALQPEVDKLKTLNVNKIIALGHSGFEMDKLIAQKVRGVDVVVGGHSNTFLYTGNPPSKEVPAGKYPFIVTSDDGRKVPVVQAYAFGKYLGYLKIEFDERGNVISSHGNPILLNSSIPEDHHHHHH
Description: (§1) The ELISA plates were coated with SA protein diluted to 1.5 μg/mL in coating buffer (50 mM carbonate coating buffer, pH 9.6) and incubated overnight at 4° C. The supernatant was discarded, and the plates were washed three times with PBST. Then, 5% skimmed milk powder prepared with PBS was added for blocking and the plates were incubated for 2 h at 37° C. After washing the plates once with PBST, CD73-biotin protein (prepared by biotinylating CD73-His protein according to the EZ-Link NHS-Biotin Reagent instructions) was diluted to 0.5 μg/mL and added at 100 μL/well for incubation at room temperature for 1 h. The plates were washed three times with PBST, and the prepared murine-derived monoclonal antibodies against human CD73 were serially diluted with 1% BSA buffer prepared with PBST and added to the ELISA plates at 100 μl/well. The plates were incubated at 37° C. for 1 h. After washing the plates three times with PBST, HRP-labeled goat anti-mouse IgG secondary antibody was added and the plates were incubated for 30 min at 37° C. After washing the plates three times with PBST, the residual droplets were patted dry on absorbent paper as much as possible. Then, 100 μl of TMB color developing solution was added to each well, and the plates were incubated in the dark at room temperature for 5 min for color development. Subsequently, 50 μl of 2M H₂SO₄ stop solution was added to each well to terminate the substrate reaction. The OD values were read at 450 nm using a multimode microplate reader to analyze the binding ability of the tested antibodies to the target antigen human CD73-His.
(§2) Referring to the experimental method in Example 3, the affinity of 48A11-HuV33 for various mutant proteins of CD73-ND was determined. The SA protein was diluted to 1 μg/mL for coating the ELISA plates, and the biotinylated CD73 protein (CD73-biotin) was used at a concentration of 0.1 μg/mL.

CD73-ND-L133A = target: T2, CD73-ND-L133A (human, UniProt P21589 27-317); experiment: ELISA, biotinylated antigen on streptavidin plate
T2 construct: Alanine mutant of CD73-ND
T2 sequence: T1 sequence with L133A, A137V
Description: as §1, §2

CD73-ND-P134A [1] = target: T3, CD73-ND-P134A (human, UniProt P21589 27-317); experiment: ELISA, biotinylated antigen on streptavidin plate
T3 construct: Alanine mutant of CD73-ND
T3 sequence: T1 sequence with P134A, A137V
Description: as §1, §2

CD73-ND-his = target: T4, CD73-ND-his (human, UniProt P21589 27-317); experiment: ELISA, high plateau value (OD 450 nm)
T4 construct: Biotinylated and captured on streptavidin in the ELISA
T4 sequence: T1 sequence with A137V
Description: as §1, §2

CD73-ND-Y132A = target: T5, CD73-ND-Y132A (human, UniProt P21589 27-317); experiment: ELISA, high plateau value (OD 450 nm)
T5 construct: Alanine mutant of CD73-ND
T5 sequence: T1 sequence with Y132A, A137V
Description: as §1, §2

CD73-ND-L138A = target: T6, CD73-ND-L138A (human, UniProt P21589 27-317); experiment: ELISA, high plateau value (OD 450 nm)
T6 construct: Alanine mutant of CD73-ND
T6 sequence: T1 sequence with A137V, L138A
Description: as §1, §2

CD73-ND-P134A [2] = target: T3, CD73-ND-P134A; experiment: ELISA, high plateau value (OD 450 nm)
Description: as §1, §2

B1: 48A11-HuV33 (antibody, human IgG4, V domains shown)
VH: QVQLVQSGAEVKKPGASVKVSCKASGYTFTSYWMHWVRQAPGQGLEWIGEINPSIGRTNYNEKFKSRVTLTRDTSTSTAYMELSSLRSEDTAVYYCARRVYGTMDYWGQGTLVTVSS
VL: DIQMTQSPSSLSASVGDRVTITCKASQDINSYLSWFQQKPGKSPKLLIYRANIWVDGVPSRFSGSGSGQDYTFTISSLQPEDIATYYCLQYDELYTFGQGTKVEIK
notes: Humanized
EC50 (CD73-ND-V137A): 0.891 nM | EC50 (CD73-ND-L133A): 25.8 nM | EC50 (CD73-ND-P134A [1]): 0.205 nM | Top (CD73-ND-his): 2.08 | Top (CD73-ND-Y132A): 0.254 | Top (CD73-ND-L138A): 1.91 | Top (CD73-ND-P134A [2]): 1.97
